# In patent publication US20140087995A1 (published 2014):
# Numbered stars: 1 amine (or outer) side, 2 acyl side, 3 side chain; on linkers, the order of the positions; unused ones are H or OH. Bridge positions count the residues as written; N and C are the ends. Side chains are listed from the residue outwards. Ends that are not written are not given here. * marks the point of attachment. C20 diacid = O=C(O)CCCCCCCCCCCCCCCCCCC(=O)*; γGlu = O=C(O)[C@H](CCC(=O)[*:2])N[*:1]
# T1: rat calcitonin receptor (rat, UniProt P32214 25-516)
# T1 construct: whole, on cells; Membranes prepared from transiently transfected BHK tk'ts 13 cells (Assay VIII); also called rCTR; rCT
# T1 sequence (looked up): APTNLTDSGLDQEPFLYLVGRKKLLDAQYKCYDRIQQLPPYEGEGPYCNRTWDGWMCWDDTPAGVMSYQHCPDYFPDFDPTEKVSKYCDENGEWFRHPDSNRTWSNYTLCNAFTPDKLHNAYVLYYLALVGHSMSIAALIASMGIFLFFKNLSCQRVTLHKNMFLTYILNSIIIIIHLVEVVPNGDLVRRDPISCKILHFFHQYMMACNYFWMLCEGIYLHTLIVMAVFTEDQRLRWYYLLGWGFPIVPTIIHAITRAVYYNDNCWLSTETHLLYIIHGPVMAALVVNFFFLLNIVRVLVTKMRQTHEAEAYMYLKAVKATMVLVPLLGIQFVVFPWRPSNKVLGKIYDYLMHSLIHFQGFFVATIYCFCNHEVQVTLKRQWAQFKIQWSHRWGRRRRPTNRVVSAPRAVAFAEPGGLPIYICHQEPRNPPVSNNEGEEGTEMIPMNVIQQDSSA
# T2: human calcitonin receptor (human, UniProt P30988 25-474)
# T2 construct: whole, on cells; Membranes prepared from a stably transfected BHK cell line (Assay VII); also called hCTR; hCT
# T2 sequence (looked up): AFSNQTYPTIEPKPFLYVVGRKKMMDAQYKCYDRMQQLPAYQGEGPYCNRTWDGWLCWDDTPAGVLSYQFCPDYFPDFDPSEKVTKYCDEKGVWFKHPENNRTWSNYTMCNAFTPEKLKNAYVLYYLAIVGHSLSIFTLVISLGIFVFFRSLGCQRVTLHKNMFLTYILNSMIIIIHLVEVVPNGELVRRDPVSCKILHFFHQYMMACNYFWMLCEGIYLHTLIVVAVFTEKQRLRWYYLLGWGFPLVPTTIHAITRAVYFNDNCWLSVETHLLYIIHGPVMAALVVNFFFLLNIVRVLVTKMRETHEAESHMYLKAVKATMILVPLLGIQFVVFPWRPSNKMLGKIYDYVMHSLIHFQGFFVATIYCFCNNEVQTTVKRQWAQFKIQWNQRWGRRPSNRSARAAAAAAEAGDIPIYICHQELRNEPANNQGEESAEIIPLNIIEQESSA
# T3: rat amylin receptor (rat calcitonin receptor + rat RAMP 3) (rat, UniProt P32214 25-516; Q9JJ73 23-147)
# T3 construct: whole, on cells; Membranes prepared from transiently transfected BHK tk'ts 13 cells (Assay VI); also called rAmylin-R; rAmylin
# T3 sequence (looked up) 1: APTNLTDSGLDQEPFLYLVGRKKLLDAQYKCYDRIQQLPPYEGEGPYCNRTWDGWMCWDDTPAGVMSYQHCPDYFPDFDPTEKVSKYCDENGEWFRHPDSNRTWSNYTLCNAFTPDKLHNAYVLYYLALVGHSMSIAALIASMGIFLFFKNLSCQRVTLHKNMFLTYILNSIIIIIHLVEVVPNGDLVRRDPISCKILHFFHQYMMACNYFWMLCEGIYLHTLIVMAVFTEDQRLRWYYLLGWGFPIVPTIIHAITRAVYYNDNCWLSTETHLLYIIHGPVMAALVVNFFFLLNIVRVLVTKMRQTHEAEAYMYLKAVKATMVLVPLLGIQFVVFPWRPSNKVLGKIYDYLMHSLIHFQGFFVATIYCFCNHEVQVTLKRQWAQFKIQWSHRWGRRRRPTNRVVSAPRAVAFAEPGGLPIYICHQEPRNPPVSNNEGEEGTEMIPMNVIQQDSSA
# T3 sequence (looked up) 2: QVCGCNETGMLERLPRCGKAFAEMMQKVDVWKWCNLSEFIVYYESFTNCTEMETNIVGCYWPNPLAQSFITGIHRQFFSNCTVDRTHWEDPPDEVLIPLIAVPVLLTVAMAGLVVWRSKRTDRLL
# What was measured:
# rat calcitonin receptor [1] = target: T1, rat calcitonin receptor; assay: SPA competition vs 125I-calcitonin, membranes of BHK cells with rat calcitonin receptor (Assay VIII)
# [2] = target: T2, human calcitonin receptor; assay: ratio of binding IC50s: human calcitonin receptor / human amylin receptor (reference)
# Summary of the method: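 IC₅₀ values were derived by one-site competition analysis of SPA counts. Cell membranes (35 ng/μL) with SPA beads were incubated with test compounds for 120 min at 25° C in Hepes buffer, pH 7.4, containing CaCl2, MgCl₂, OA and Tween20.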
# rat calcitonin receptor [3] = target: T1, rat calcitonin receptor; assay: ratio of binding IC50s: rat calcitonin receptor / rat amylin receptor (reference)
# [4] = target: T3, rat amylin receptor (rat calcitonin …); assay: SPA competition vs 125I-rat amylin, membranes of BHK cells with rat calcitonin receptor + rat RAMP3 (Assay VI)
Binder,IC50 (rat calcitonin receptor [1]) [nM],Ratio hCT/hAmylin binding [2],Ratio rCT/rAmylin binding (rat calcitonin receptor [3]),IC50 [4] [nM]
"K([γGlu-C20 diacid])CNTATCATQRLAHFLRHSSPNFGAIPSSTNVGRNTY-NH2 (disulfide 2-7; N-terminus assumed; SMILES CC[C@H](C)[C@H](NC(=O)[C@H](C)NC(=O)CNC(=O)[C@H](Cc1ccccc1)NC(=O)[C@H](CC(N)=O)NC(=O)[C@@H]1CCCN1C(=O)[C@H](CO)NC(=O)[C@H](CO)NC(=O)[C@H](Cc1c[nH]cn1)NC(=O)[C@H](CCCNC(=N)N)NC(=O)[C@H](CC(C)C)NC(=O)[C@H](Cc1ccccc1)NC(=O)[C@H](Cc1c[nH]cn1)NC(=O)[C@H](C)NC(=O)[C@H](CC(C)C)NC(=O)[C@H](CCCNC(=N)N)NC(=O)[C@H](CCC(N)=O)NC(=O)[C@@H](NC(=O)[C@H](C)NC(=O)[C@@H]1CSSC[C@H](NC(=O)[C@@H](N)CCCCNC(=O)CC[C@H](NC(=O)CCCCCCCCCCCCCCCCCCC(=O)O)C(=O)O)C(=O)N[C@@H](CC(N)=O)C(=O)N[C@@H]([C@@H](C)O)C(=O)N[C@@H](C)C(=O)N[C@@H]([C@@H](C)O)C(=O)N1)[C@@H](C)O)C(=O)N1CCC[C@H]1C(=O)N[C@@H](CO)C(=O)N[C@@H](CO)C(=O)N[C@H](C(=O)N[C@@H](CC(N)=O)C(=O)N[C@H](C(=O)NCC(=O)N[C@@H](CCCNC(=N)N)C(=O)N[C@@H](CC(N)=O)C(=O)N[C@H](C(=O)N[C@@H](Cc1ccc(O)cc1)C(N)=O)[C@@H](C)O)C(C)C)[C@@H](C)O, Analogue of human amylin; also called compound 85)",146,91.8,46.5,3.14
"K([γGlu-C20 diacid])CNTATCATQRLAHFLRHSSPNFGAIPSSTNVGHNTY-NH2 (disulfide 2-7; N-terminus assumed; SMILES CC[C@H](C)[C@H](NC(=O)[C@H](C)NC(=O)CNC(=O)[C@H](Cc1ccccc1)NC(=O)[C@H](CC(N)=O)NC(=O)[C@@H]1CCCN1C(=O)[C@H](CO)NC(=O)[C@H](CO)NC(=O)[C@H](Cc1c[nH]cn1)NC(=O)[C@H](CCCNC(=N)N)NC(=O)[C@H](CC(C)C)NC(=O)[C@H](Cc1ccccc1)NC(=O)[C@H](Cc1c[nH]cn1)NC(=O)[C@H](C)NC(=O)[C@H](CC(C)C)NC(=O)[C@H](CCCNC(=N)N)NC(=O)[C@H](CCC(N)=O)NC(=O)[C@@H](NC(=O)[C@H](C)NC(=O)[C@@H]1CSSC[C@H](NC(=O)[C@@H](N)CCCCNC(=O)CC[C@H](NC(=O)CCCCCCCCCCCCCCCCCCC(=O)O)C(=O)O)C(=O)N[C@@H](CC(N)=O)C(=O)N[C@@H]([C@@H](C)O)C(=O)N[C@@H](C)C(=O)N[C@@H]([C@@H](C)O)C(=O)N1)[C@@H](C)O)C(=O)N1CCC[C@H]1C(=O)N[C@@H](CO)C(=O)N[C@@H](CO)C(=O)N[C@H](C(=O)N[C@@H](CC(N)=O)C(=O)N[C@H](C(=O)NCC(=O)N[C@@H](Cc1c[nH]cn1)C(=O)N[C@@H](CC(N)=O)C(=O)N[C@H](C(=O)N[C@@H](Cc1ccc(O)cc1)C(N)=O)[C@@H](C)O)C(C)C)[C@@H](C)O, Analogue of human amylin; also called compound 81)",61.1,87.2,42.9,1.42

# Further binders by falling IC50 (rat calcitonin receptor [1]), results first:
IC50 (rat calcitonin receptor [1]) [nM],Ratio hCT/hAmylin binding [2],Ratio rCT/rAmylin binding (rat calcitonin receptor [3]),IC50 [4] [nM],Binder
20.8,45.5,35.8,0.581,"K([γGlu-C20 diacid])CNTATCATQRLAHFLRHSSPNFGAIPSSTNVGSHTY-NH2 (disulfide 2-7; N-terminus assumed; SMILES CC[C@H](C)[C@H](NC(=O)[C@H](C)NC(=O)CNC(=O)[C@H](Cc1ccccc1)NC(=O)[C@H](CC(N)=O)NC(=O)[C@@H]1CCCN1C(=O)[C@H](CO)NC(=O)[C@H](CO)NC(=O)[C@H](Cc1c[nH]cn1)NC(=O)[C@H](CCCNC(=N)N)NC(=O)[C@H](CC(C)C)NC(=O)[C@H](Cc1ccccc1)NC(=O)[C@H](Cc1c[nH]cn1)NC(=O)[C@H](C)NC(=O)[C@H](CC(C)C)NC(=O)[C@H](CCCNC(=N)N)NC(=O)[C@H](CCC(N)=O)NC(=O)[C@@H](NC(=O)[C@H](C)NC(=O)[C@@H]1CSSC[C@H](NC(=O)[C@@H](N)CCCCNC(=O)CC[C@H](NC(=O)CCCCCCCCCCCCCCCCCCC(=O)O)C(=O)O)C(=O)N[C@@H](CC(N)=O)C(=O)N[C@@H]([C@@H](C)O)C(=O)N[C@@H](C)C(=O)N[C@@H]([C@@H](C)O)C(=O)N1)[C@@H](C)O)C(=O)N1CCC[C@H]1C(=O)N[C@@H](CO)C(=O)N[C@@H](CO)C(=O)N[C@H](C(=O)N[C@@H](CC(N)=O)C(=O)N[C@H](C(=O)NCC(=O)N[C@@H](CO)C(=O)N[C@@H](Cc1c[nH]cn1)C(=O)N[C@H](C(=O)N[C@@H](Cc1ccc(O)cc1)C(N)=O)[C@@H](C)O)C(C)C)[C@@H](C)O, Analogue of human amylin; also called compound 66)"
18,63,42.8,0.42,"K([γGlu-C20 diacid])CNTATCATQRLAHFLRHSSPNFGAIPSSTPVGSNTY-NH2 (disulfide 2-7; N-terminus assumed; SMILES CC[C@H](C)[C@H](NC(=O)[C@H](C)NC(=O)CNC(=O)[C@H](Cc1ccccc1)NC(=O)[C@H](CC(N)=O)NC(=O)[C@@H]1CCCN1C(=O)[C@H](CO)NC(=O)[C@H](CO)NC(=O)[C@H](Cc1c[nH]cn1)NC(=O)[C@H](CCCNC(=N)N)NC(=O)[C@H](CC(C)C)NC(=O)[C@H](Cc1ccccc1)NC(=O)[C@H](Cc1c[nH]cn1)NC(=O)[C@H](C)NC(=O)[C@H](CC(C)C)NC(=O)[C@H](CCCNC(=N)N)NC(=O)[C@H](CCC(N)=O)NC(=O)[C@@H](NC(=O)[C@H](C)NC(=O)[C@@H]1CSSC[C@H](NC(=O)[C@@H](N)CCCCNC(=O)CC[C@H](NC(=O)CCCCCCCCCCCCCCCCCCC(=O)O)C(=O)O)C(=O)N[C@@H](CC(N)=O)C(=O)N[C@@H]([C@@H](C)O)C(=O)N[C@@H](C)C(=O)N[C@@H]([C@@H](C)O)C(=O)N1)[C@@H](C)O)C(=O)N1CCC[C@H]1C(=O)N[C@@H](CO)C(=O)N[C@@H](CO)C(=O)N[C@H](C(=O)N1CCC[C@H]1C(=O)N[C@H](C(=O)NCC(=O)N[C@@H](CO)C(=O)N[C@@H](CC(N)=O)C(=O)N[C@H](C(=O)N[C@@H](Cc1ccc(O)cc1)C(N)=O)[C@@H](C)O)C(C)C)[C@@H](C)O, Analogue of human amylin; also called compound 62)"
